Target: the molecule itself
Test: crystal structure; crystals grown in 0.2 M potassium-sodium tartrate, 25% (w/v) PEG 3350 at 20°C, soaked with octanoyl-CoA for up to 2 min; 2.7 Å; four chains (A-D) in the asymmetric unit

B1: murine KS-MAT didomain (condensing part of murine Type I fatty acid synthase), octanoyl-bound (domain or fragment)
chain: EEVVIAGMSGKLPESENLQEFWANLIGGVDMVTDDDRRWKAGLYGLPKRSGKLKDLSKFDASFFGVHPKQAHTMDPQLRLLLEVSYEAIVDGGINPASLRGTNTGVWVGVSGSEASEALSRDPETLLGYSMVGCQRAMMANRLSFFFDFKGPSIALDTACSSSLLALQNAYQAIRSGECPAALVGGINLLLKPNTSVQFMKLGMLSPDGTCRSFDDSGSGYCRSEAVVAVLLTKKSLARRVYATILNAGTNTDGSKEQGVTFPSGEVQEQLICSLYQPAGLAPESLEYIEAHGTGTKVGDPQELNGITRSLCAFRQAPLLIGSTKSNMGHPEPASGLAALTKVLLSLEHGVWAPNLHFHNPNPEIPALLDGRLQVVDRPLPVRGGNVGINSFGFGGSNVHVILQPNTRQAPAPTAHAALPHLLHASGRTLEAVQDLLEQGRQHSQDLAFVSMLNDIAATPTAAMPFRGYTVLGVEGRVQEVQQVSTNKRPLWFICSGMGTQWRGMGLSLMRLDSFRESILRSDEAVKPLGVKVSDLLLSTDERTFDDIVHAFVSLTAIQIALIDLLTSVGLKPDGIIGHSLGEVACGYADGCLSQREAVLAAYWRGQCIKDAHLPPGSMAAVGLSWEECKQRCPAGVVPACHNSEDTVTISGPQAAVNEFVEQLKQEGVFAKEVRTGGLAFHSYFMEGIAPTLLQALKKVIREPRPRSARWLSTSIPEAQWQSSLARTSSAEYNVNNLVSPVLFQEALWHIPEHAVVLEIAPHALLQAVLKRGVKSSCTIIPLMKRDHKDNLEFFLTNLGKVHLTGINVNPNALFPPVEFPAPRGTPLISPHIKWDHSQTWDVPVAEDFPN
modifications: octanoyl covalently bound to C161 (KS, all four chains of the asymmetric unit); octanoyl covalently bound to S581 (MAT, chain D only)
notes: Type I fatty acid synthase (FAS), murine; condensing part with KS, linker domain (LD) and MAT; residues 1-407 and 824-852 (KS) and 488-806 (MAT) are named in superpositions; Wild type; also called murine FAS KS-MAT didomain; Wildtype soaked with octanoyl-CoA; source: E. coli BL21 Gold (DE3), purified (Ni-NTA, Strep-Tactin, SEC)
B1: binds.

Reference: PMC6954729, “Type I fatty acid synthase trapped in the octanoyl‐bound state” (Protein Science : A Publication of the Protein Society, 2020)
